Consider one molecule from patent US20170204158A1 (Regeneron, published 2017).

For orientation: Kd means the free concentration of one partner at which half of the binding sites on the other are occupied at equilibrium, for simple one-to-one binding. For orientation: koff means the rate constant with which the complex falls apart. As a reminder, the kon is the rate constant with which the complex forms. One may read the IC50 as the midpoint of a concentration-inhibition curve.

Assay [1] has as its target T1, monkey IL-33 expressed with C-terminal hexahistidine tag (MfIL-33-6His) (cynomolgus monkey (M. fascicularis)).
T1 construct: also called M. fascicularis IL-33-6His; cynomolgus monkey IL-33
T1 chain: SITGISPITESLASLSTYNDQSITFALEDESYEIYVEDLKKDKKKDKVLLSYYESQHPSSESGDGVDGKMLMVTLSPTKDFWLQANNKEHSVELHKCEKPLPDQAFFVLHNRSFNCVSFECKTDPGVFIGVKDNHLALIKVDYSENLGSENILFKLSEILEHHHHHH
The assay can be described thus: SPR (Biacore T-200), 37 C; Fc fusion captured by anti-Fc antibody, MfIL-33-6His injected. How it is done: (§1) The Biacore sensor surface was first derivatized by amine coupling a polyclonal rabbit anti-mouse antibody (GE, # BR-1008-38) or with a monoclonal mouse anti-human Fc antibody (GE, # BR-1008-39) to capture IL-33 Trap and receptor proteins with a C-terminal mouse IgG2a Fc tag or a C-terminal human IgG1 Fc tag, respectively. Kinetic experiments were carried out in 0.01 M HEPES pH 7.4, 0.15 M NaCl, 3 mM EDTA, and 0.005% v/v Surfactant Tween-20 (HBST running buffer). Different concentrations of human IL-33, mouse IL-33 or MfIL-33-6His prepared in HBST running buffer (ranging from 60 nM to 27.4 pM, 3-fold dilutions, for Trap proteins and ranging from 60 nM to 0.25 nM, 3-fold dilutions, for ST2 receptor proteins) were injected over the captured IL-33 Trap and receptor protein surfaces at a flow rate of 50 μL/minute. Association of different IL-33 proteins to the different capture surfaces was monitored for 7 minutes for Trap proteins or 4 minutes for ST2 receptor proteins and their dissociation in HBST running buffer was monitored for 14 minutes for Trap proteins or 8 minutes for ST2 receptor proteins. Kinetic association (ka) and dissociation (kd) rate constants were determined by fitting the real-time binding sensorgrams to a 1:1 binding model using Scrubber 2.0c curve-fitting software. Binding dissociation equilibrium constants (KD) and dissociative half-lives (t½) were calculated from the kinetic rate constants as: […]
For orientation: SPR reads the build-up and loss of mass on a sensor chip optically.

In assay [2] the target is T2, human IL-33 (R&D Systems, # 3625-IL-010/CF) (human, UniProt O95760 112-270, biotinylated in the blocking ELISA of Example 3 (sites not given)).
T2 construct: Commercial protein; also called hIL-33; biot-hIL-33
T2 sequence (looked up): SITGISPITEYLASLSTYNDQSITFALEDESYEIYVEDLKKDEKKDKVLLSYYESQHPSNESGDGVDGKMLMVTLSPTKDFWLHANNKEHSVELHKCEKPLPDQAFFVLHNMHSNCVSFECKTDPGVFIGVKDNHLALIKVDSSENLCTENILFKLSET
Nature of the assay: competition ELISA; antagonist pre-mixed with 20 pM biotin-hIL-33, binding to plate-coated human ST2-Fc; highest concentration tested. How it is done:
(§2) The ability of exemplary IL-33 antagonists of the invention to block human IL-33 (hIL-33) binding to the human ST2 receptor was measured using a competition sandwich ELISA. A portion of human ST2 protein ecto domain that was expressed with a C-terminal mouse Fc tag (SEQ ID NO:2) was coated at a concentration of 1 μg/mL in PBS buffer on a 96-well microtiter plate overnight at 4° C. […] Biotinylated hIL-33 protein (R&D systems, #3625-IL/CF) (biot-hIL-33) was added to achieve a constant final concentration of 20 pM to serial dilutions of IL-33 antagonists ranging from 0 to 100 nM. The mixture was incubated for 1 hour at room temperature (RT) before transfer to the hST2-hFc coated microtiter plates. After incubation for 1 hour at RT, the wells were then washed, and plate-bound biot-hIL-33 was detected with HRP-conjugated streptavidin (Thermo Scientific, # N200). All samples were developed with a TMB solution (BD biosciences, # 51-2607KC) to produce a colorimetric reaction and then quenched by acidification with 1M sulfuric acid before measuring absorbance at 450 nm on a Victor X5 plate reader (PerkinElmer). Data analysis was performed using a sigmoidal dose-response model within Prism™ software. […] Maximum blocking values represent the ability of the antagonists to block IL-33 binding relative to baseline. The absorbance measured at the constant amount of hIL-33 on the dose curve was defined as 0% blocking and the absorbance with no added IL-33 was defined as 100% blocking. The absorbance values of the wells containing the highest concentration tested for each antagonist were used to determine the maximum blocking percent.

The target in assay [3] is T2, human IL-33 (R&D Systems, # …). The assay can be described thus: competition ELISA; antagonist pre-mixed with 20 pM biotin-hIL-33, binding to plate-coated human ST2-Fc. How it is done:
as §2
(In an ELISA, binding on a coated surface is turned into a signal by an enzyme label.)

For assay [4] the target is unchanged. Nature of the assay: cell-based or functional assay.
In assay [5] the target is T3, mouse IL-33 (R&D Systems, # 3626-ML-010/CF) (mouse, UniProt Q8BVZ5 109-266).
T3 construct: Commercial protein; also called mIL-33; mIL33
T3 sequence (looked up): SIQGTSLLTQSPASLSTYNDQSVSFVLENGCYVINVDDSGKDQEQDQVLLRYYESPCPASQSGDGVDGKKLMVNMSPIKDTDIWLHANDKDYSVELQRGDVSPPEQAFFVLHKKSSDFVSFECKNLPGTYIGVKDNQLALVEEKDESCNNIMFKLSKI
Nature of the assay: SPR (Biacore T-200), 37 C; Fc fusion captured by anti-Fc antibody, mouse IL-33 injected. How it is done:
as §1

Assay [6] has as its target T3, mouse IL-33 (R&D Systems, # …). The assay can be described thus: SPR (Biacore T-200), 25 C; Fc fusion captured by anti-Fc antibody, mouse IL-33 injected. How it is done: as §1

B1: hST2-hIL1RAcP-mFc (Fc fusion)
chain: KFSKQSWGLENEALIVRCPRQGKPSYTVDWYYSQTNKSIPTQERNRVFASGQLLKFLPAAVADSGIYTCIVRSPTFNRTGYANVTIYKKQSDCNVPDYLMYSTVSGSEKNSKIYCPTIDLYNWTAPLEWFKNCQALQGSRYRAHKSFLVIDNVMTEDAGDYTCKFIHNENGANYSVTATRSFTVKDEQGFSLFPVIGAPAQNEIKEVEIGKNANLTCSACFGKGTQFLAAVLWQLNGTKITDFGEPRIQQEEGQNQSFSNGLACLDMVLRIADVKEEDLLLQYDCLALNLHGLRRHTVRLSRKNPIDHHSSERCDDWGLDTMRQIQVFEDEPARIKCPLFEHFLKFNYSTAHSAGLTLIWYWTRQDRDLEEPINFRLPENRISKEKDVLWFRPTLLNDTGNYTCMLRNTTYCSKVAFPLEVVQKDSCFNSPMKLPVHKLYIEYGIQRITCPNVDGYFPSSVKPTITWYMGCYKIQNFNNVIPEGMNLSFLIALISNNGNYTCVVTYPENGRTFHLTRTLTVKVVGSPKNAVPPVIHSPNDHVVYEKEPGEELLIPCTVYFSFLMDSRNEVWWTIDGKKPDDITIDVTINESISHSRTEDETRTQILSIKKVTSEDLKRSYVCHARSAKGEVAKAAKVKQKVPAPRYTVESGEPRGPTIKPCPPCKCPAPNLLGGPSVFIFPPKIKDVLMISLSPIVTCVVVDVSEDDPDVQISWFVNNVEVHTAQTQTHREDYNSTLRVVSALPIQHQDWMSGKEFKCKVNNKDLPAPIERTISKPKGSVRAPQVYVLPPPEEEMTKKQVTLTCMVTDFMPEDIYVEWTNNGKTELNYKNTEPVLDSDGSYFMYSKLRVEKKNWVERNSYSCSVVHEGLHNHHTTKSFSRTPGK
notes: also called third IL-33 antagonist; human IL-33 Trap
In the case of B1, in assay [1], the “60 nM Monkey IL-33 Bound (RU)” value was found to be 27 RU, the Kd came to 0.00329 nM, the off-rate constant (koff) was 4.79e-05 s⁻¹ and the on-rate (kon) came out at 1.45e+07 M⁻¹ s⁻¹. This molecule came in with a t1/2 in assay [1] of 4.02 h. Also, the “% Maximum blocking” value in assay [2] was 97%. This molecule also gave an IC50 in assay [3] of 0.00634 nM. In assay [4], the “IC50 (M), blocking of IL-33 induced activation of human basophils (CD203c), donor 655675” value turned out to be 1.9e-11 M; the “IC50 (M), blocking of IL-33 induced activation of human basophils (CD203c), donor 655676” value was found to be 1.51e-11 M; the “IC50 (M), blocking of IL-33 induced activation of human basophils (CD203c), donor 655685” value was 2.3e-11 M; the “IC50 (M), blocking of IL-33 induced activation of human basophils (CD203c), donor 655686” value was 2.09e-11 M. In assay [4], the “IC50 (M), blocking of IL-33 induced activation of human basophils (CD203c), donor 698846” value was 3.6e-11 M and the “IC50 (M), blocking of IL-33 induced activation of human basophils (CD203c), donor 698847” value stood at 1.11e-11 M. For the same molecule, in assay [5], the “60 nM Mouse IL-33 Bound (RU)” value is 21 RU, the Kd amounted to 0.0933 nM, the koff worked out at 0.000317 s⁻¹ and the kon worked out at 3.39e+06 M⁻¹ s⁻¹. For the same molecule, in assay [5], the t1/2 was 0.6 h. In addition, in assay [6], the “60 nM Mouse IL-33 Bound (RU)” value was determined as 22 RU, the Kd amounted to 0.0192 nM, the off-rate (koff) was 8.97e-05 s⁻¹ and the kon is 4.67e+06 M⁻¹ s⁻¹. The same molecule registered a t1/2 in assay [6] of 2.15 h.
